From paper PMC12108899

Molecular target: hemocyanin from Macrobrachium acanthurus (Macrobrachium acanthurus)
Experiment: AUC; sedimentation velocity, HcMac at 100, 200 and 300 ug/mL, Tris-HCl 100 mmol/L with NaCl 50 mmol/L, pH 7.0, 20 °C, absorbance at 280 nm, SEDFIT c(S) and c(M); single 19S species of about 450 kDa; hexamer of monomeric subunits

stoichiometry N: 6
Substance: hemocyanin from Macrobrachium acanthurus (natural protein)
